Measured values reported in patent US7166764B2, “Noc2 knockout mouse” (JCR Pharmaceuticals Co., Ltd., priority 2004, dated 2007).
Numbering of substitutions follows the chain as printed.

T1: Rab5A (Homo sapiens, UniProt P20339)
T1 construct: Full-length Rab3A, B, C and D and Rab5 cDNAs were subcloned into pFLAG-CMV-2 (SIGMA); expressed in transfected cells; host or cells: COS-1 cells (lysate)
T1 sequence (P20339 1-215): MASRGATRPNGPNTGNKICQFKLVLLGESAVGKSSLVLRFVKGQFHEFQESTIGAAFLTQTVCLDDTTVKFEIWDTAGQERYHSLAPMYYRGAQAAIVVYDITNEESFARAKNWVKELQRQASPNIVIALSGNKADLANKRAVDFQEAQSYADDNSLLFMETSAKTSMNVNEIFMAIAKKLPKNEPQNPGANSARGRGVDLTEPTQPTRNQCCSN

B1: cholecystokinin (peptide, UniProt P06307 21-115, looked up)
Cholecystokinin: QPVPPADPAGSGLQRAEEAPRRQLRVSQRTDGESRAHLGALLARYIQQARKAPSGRMSIVKNLQNLDPSHRISDRDYMGWMDFGRRSAEEYEYPS
modifications: Cholecystokinin
B2: Noc2: full-length wild type Noc2 expressed as GST-fusion protein (protein)
chain: MADTIFSSGNDQWVCPNDRQLALRAKLQTGWSVHTYQTEKQRRSQCLSPGELEIILQVIQRAERLDILEQQRIGRLVERLETMQRNVMGNGLSQCLLCGEVLGFLGSSSVFCKDCRKKVCTKCGIEASPGQKRPLWLCKICSEQREVWKRSGAWFYKGLPKYILPLKTPGRADDPHFRPLPVEPTETQPPSAETSRVYTWARGRVVSSDSDSDSDLSSSSLEDRPLPSGVKGTKGDKPRGDSGASMESPRLGPARPPSHLSGSQSSLGSEAGTGATEPQGGTPAQPEPRVPGKRHTWATPRY
modifications: left off: a dimerising Fc or GST
notes: full-length wild type Noc2 expressed as GST-fusion protein
B3: Noc2AAA: mutant Noc2, Trp-Phe-Tyr (residues 154–156) replaced with three alanine residues, GST-fusion protein (protein)
chain: B2 chain with W154A, F155A, Y156A

Columns and labels:
pancreatic acinar cells = assay: Amylase secretion from isolated pancreatic acinar cells; assay type: cell-based, mouse; conditions: 30 pM CCK or 1 μM carbachol, n=12, means±s.e.m.
Description: Pancreatic acini were prepared by collagenase digestion method. Amylase secretion experiments were performed according to Ohnishi et al. (28) with slight modifications. Briefly, isolated acini were suspended in an incubation buffer [consisting of 10 mM HEPES (pH 7.4), 127 mM NaCl, 4.7 mM KCl, 0.6 mM MgCl2, 1.3 mM CaCl2, 0.6 mM Na2HPO4, 2.0 mg/ml glucose, Eagle's MEM amino acids supplement, 2 mM L-glutamine, 1% BSA, 0.01% soybean trypsin inhibiter] as previously described (28) and preincubated at 37° C. for 30 minutes. After preincubation, the acini were centrifuged, resuspended in fresh incubation buffer, and incubated at 37° C. in the presence or absence of 30 pM CCK or 1 μM carbachol. Amylase released into the supernatant during incubation was quantified using Amylase B-test WAKO (WAKO PURE CHEMICAL INDUSTRIES). Amylase secretion was normalized as the amount released into the medium relative to the total amylase content in the pancreatic acinar cells (expressed as % amylase release).

Rab3 isoforms = assay: In vitro binding assay (cosedimentation, GST-Noc2 on glutathione beads); conditions: lysates of COS-1 cells transfected with FLAG-tagged Rab3 isoforms; GDP-βS or GTP-γS
Description: Pancreatic islets were isolated by collagenase digestion method in a conventional manner (27). The pancreatic islets were cultured for 48 hours in RPMI1640 medium in the presence or absence of PTX (30 ng/ml). Batch incubation was performed as previously described (27). Insulin released into the medium was measured by radioimmunoassay (EIKEN CHEMICAL). Recombinant adenoviruses carrying either LacZ, Noc2 wt (wild-type), or Noc2AAA (mutant) cDNA were generated according to the manufacturer's instructions (STRATAGENE). For preparation of Noc2AAA, Trp-Phe-Tyr (residues 154–156) were replaced with three alanine residues as previously described (24). […] Lysate from COS-1 cells transfected with a Flag-tagged Rab3 isoforms was evaluated for binding to the GST-Noc2 wild-type (Noc2 wt) or the GST-Noc2 mutant (Noc2AAA) in the presence of GTP-γS.
Wild type Noc2 and mutant Noc2 (Noc2AAA), both full-length, were expressed as GST-fusion proteins and purified according to the manufacturer's instructions (AMERSHAM). […] Briefly, lysates from COS-1 cells transfected with FLAG-tagged Rab3 isoforms and Rab5 were assessed for binding to GST-Noc2 immobilized on glutathione beads in the presence of GDP-βS or GTP-γS. Rab3 isoforms and Rab5 and GST-Noc2 were detected by immunoblotting with anti-Flag antibody or immunoglobulin G-purified antibody against rat Noc2.

Rab5A = target: T1, Rab5A; assay: as above; conditions: lysates of COS-1 cells transfected with FLAG-tagged Rab5; GDP-βS or GTP-γS
Description: Wild type Noc2 and mutant Noc2 (Noc2AAA), both full-length, were expressed as GST-fusion proteins and purified according to the manufacturer's instructions (AMERSHAM). Full-length Rab3A, B, C and D and Rab5 cDNAs were subcloned into pFLAG-CMV-2 (SIGMA). For cosedimentation assays, COS-1 cells were transfected with each of the plasmids using LipofectAMINE (INVITROGEN). Following the transfection, the cells were sonicated in a buffer [20 mM HEPES, pH 7.4, 200 mM NaCl, 1 mM dithiothreitol, 5 mM MgCl2, 1 mM ATP and 0.26% (v/v) CHAPS]. In vitro binding assay was performed as previously described (15). Briefly, lysates from COS-1 cells transfected with FLAG-tagged Rab3 isoforms and Rab5 were assessed for binding to GST-Noc2 immobilized on glutathione beads in the presence of GDP-βS or GTP-γS. Rab3 isoforms and Rab5 and GST-Noc2 were detected by immunoblotting with anti-Flag antibody or immunoglobulin G-purified antibody against rat Noc2.

[1] = pancreatic acini of Noc2−/− mice, basal level 4.9±0.5%
[2] = pancreatic acini of wild-type mice, basal level 5.6±0.9%

Molecule | % amylase released of total amylase content (pancreatic acinar cells; [1]) [%] | % amylase released of total amylase content (pancreatic acinar cells; [2]) [%] | binding to Rab3 isoforms (Rab3A–D) (Rab3 isoforms) | binding to Rab5A (Rab5A)
C[N+](C)(C)CCOC(N)=O [carbachol, reference compound] | 6.2±0.5 | 15.6±0.8 | – | –
B1 | 5.8±0.5 | 13.0±0.7 | – | –
B2 | – | – | binds to all of the isoforms of Rab3 in a GTP-dependent manner | not to Rab5A
B3 | – | – | does not bind any isoform of Rab3 | –
